Data published in a protein production outcome set (Wang et al. 2014).

Test: label from the status in PepcDB records
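Also: failed if final PepcDB status was selected cloned or expressed and not failed if soluble or beyond.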

Row | Sequence | protein production
1 | AGVVVPKYTPSTENPGGPGEEPGDGLIDPAEPLDRGFMHLKGRELKSLNSISITGLNDGEKVILSTLAGLAARVTGDQVYINEGGPSSVWLKQMQNKYGIPVNTYNALAPLVQHYVETGVIKGYIVYTPYSEGQSHSINVATSLCGLLRGIAVPESLVDKVKAMGVTTELMDVRSYDEKWLYENYKDQLDKSLAADMKPEIFHHLRDYITMTNAFAFYDYNARRDWSWRTSILKDLDKGAYCFGYYDLDEWGMVNNASQLGVSMLPTDQAANLATLSSIYDTTGLKQRPATKEVVTEENVHYVTFLVSDGDNIAFNLWGQQGYMDHDLHGQFPLGYTISPSLYDLAPAALRWYYENSKEGDYFVAGPSGSSYIFPSKMSDADLDDYLAKLNEYVDKSGLNICNILDQKIMDNPKVYNKYLAQPNIDAIFYTGYGEKGDGRIKFSDNGKPVIEQRSVLWEGIDGGSNRGEESTVISQINSRSANPHSADGYTFVFVHCWTKNQQSIKTVIDGLNDNVRVVPVDQFVQLVKQNLGPK | not failed
2 | AHHHHHHGSVVKRTMTKKFLEEAFAGESMAHMRYLIFAEKAEQEGFPNIAKLFRAIAYAEFVHAKNHFIALGKLGKTPENLQMGIEGETFEVEEMYPVYNKAAEFQGEKEAVRTTHYALEAEKIHAELYRKAKEKAEKGEDIEIKKVYICPICGYTAVDEAPEYCPVCGAPKEKFVVFE | not failed
3 | AIAAIAEKAKGKEWTSTEKSREEDQQASNQPNSIALPGTSAKRTKEKMSVKGSKVLCPKKKAEHTDNPRPQKKIPIPPLPSKLPPVNLIHRDILRAWCQQLKLSSKGQKLDAYKRLCAFAYPNQKDFPSTAKEAKIRKSLQKKLKVEKGETSLQSSETHPPEVALPPVGEPPALENSTALLEGVNTVVVTTSAPEALLASWARISARARTPEAVESPQEASGVRWCVVHGKSLPADTDGWVHLQFHAGQAWVPEKQEGRVSALFLLPASNFPPPHLEDNMLCPKCVHRNKVLIKSLQWE | failed
4 | AIAEHKEVVLLLLLFLKSGQGEPLDDYVNTQGPSLFSVTKKQLGAGSREECAAKCEEDKEFTCRAFQYHSKEQQCVIMAENRKSSIIIRMRDAVLFEK | not failed
5 | AIAQGENVDHAQPISTWSAEQELHLVVFTKPPIAGLTKQRLSREIGSTLATRISAALVENTLATAYDWLQGLDLQAGGTGAVHLYYTPVESEQAKAECVERWLDDSVRHRYPAFRIAPQKASKVQSTGDQKQDPLGSRLIQAFTEVTSLVDESRDAHVVVIGSDCPALDTAVLQQAFAALHAGHGAVIGPAQDGGYYLLGLAFAAAERTRWARVIYAAFGPHLVFSQNDVCARTVEALRNDGVRTICLPVTLNDVDTAQDLVHLPASMRPREWFSSANARLHKTSDLVETAPAPGSTTCDEEVDADKLDPSVQNVCSRQV | not failed
6 | AIATYPTNLEIIGGQGGSSFSFTGENNGASLEKIWVWVGGWQIKAVRAWLSDGRDETFGVPSGSHQEYVFTPGECFTSLSLWGNGAGTRLGAIKFKTNKGGEFFAHMTSWGLKTEYPMDVGSGYCLGIVGRGGSDIDCMGFMFLNAVQSTVLTNVNYPTINQLIPKVATEEIKSVSFENKTSVKQEQKVETSKKVIKTSSWSMTKSFSSTFSVEVSAGIPEIAEVSTGFSISFGVESTHSLEQTDEKNETLTTTVEVPPKKKVDVHITIGRASFDLPYTGTVKITCKNGSVLQYETKGQYKGVAYTDIKVNTVEKDL | not failed
7 | AIQKQMLVPEVVVNKDGDWVTPVMKDEGSIQYFVVFRFINGNEIIEPKDKDYEKLGSFMRMFHEKTNGVLKSVPQTWRGYERPIYSEKKMIHEPLQCLLNTSFLSYEDKNKCLRIAERIQELTNSIQLREKQFVHGDMHFGNILVDKEDWYLLDFDECGFGYKEFDIGVPRLHLIASGQLEDAWGNFMMGYGENIS | failed
8 | AIQVFDVTAVNISATSLTLIWKVSDNESSSNYTYKIHVAGETDSSNLNVSEPRAVIPGLRSSTFYNITVCPVLGDIEGTPGFLQVHTPPVP | not failed
9 | AIVKRFEPLLLVPIGFGGILSNLPDAGLAMSAIENAVYAAKPEVMTAFSEVLQLSSYMPADIKQALSSATPLQMTTLHLLAEQYQYSDGM | failed
10 | AKESEQKVTIDSAKHEKHTKDKEENNSANTVFFDKINDLLVASVKEFEGTVGISYLDLETGEQRSVNGQHEFYTASTIKVPLTMLVADTVASGQKKWTDLIPYNAEEDYEEGTGIIAYNIQPEYPLKTLQEYAITYSDNIAKNMLYDTLGGDAKAKREMYQRYLHKTPSIEEPQFSSEDALVILQKLYTEKATKPDYQAIYDSMKQSVFHERMETPTTQGKVAHKIGSYDEFIHDMGILETPHPFALAIFTKGPDNAKSAAFIASVTDKLWQLQVSEYPNQ | not failed
11 | AKRVVFVTVGTTSFDALVKAVVSQNVKDELQKRGFTHLLIQMGRGIFFPTKCDGADGSLVVDYFTFSSSIADYIRSASLVISHAGSGSIFETLKLGKPLIVVVNEDLMDNHQCELAEALEERKHLYYTRPHSLHQTLTKMELGSLVQYTPGDGTPVARIIDRFLG | failed
12 | AKVVFYEKPGCVGNARQKALLTASGHELEVRNLLAEPWTRETLRPFFGDKPLIEWFNQSSPKVKAGAIDFAALGVEAALALMIEDPLLIRRPLMQSGDRREVGFDQATVHAWLG | failed
13 | ALFHKKLTEGVLMRDPKFLWCAQCSFGFIYEREQLEATCPQCHQTFCVRCKRQWEEQHRGRSCEDFQNWKRMN | not failed
14 | ALKQKIIGNGEKRVVTYAPTWREDDFISVGHYHFRWHFSLKKMMGLLPEDVMLLIRPHYLVTDRIDIKGFEDRVVIDSTTDMNEIYLITDLMVTDYSSVMFDFAILKRPMLFFAYDLEYYRDDLRGFYFDYYTELPGSIVTDETHLLAEIDQLLQNNFAELDPERFNKFAKRFVSWERGTAAQQVIEKINY | not failed
15 | ALPDPVKPKAPKAVNPFHLGMAGYTFVNFDLDTTLKTLERLDIHYLCIKDFHLPLNSTDEQIRAFHDKCAAHKVTGYAVGPIYMKSEEEIDRAFDYAKRVGVKLIVGVPNYELLPYVDKKVKEYDFHYAIHLHGPDIKTYPDATDVWVHTKDLDPRIGMCLDVGHDLRNGCDPVADLKKYHTRVFDMHIKDVTDSSKAGVGIEIGRGKIDFPALIRMMREVNYTGMCSLEYEKDMKDPFLGIAESIGYFKAVSDLT | not failed
16 | ANIYTFDFDEIESQEDFYRDFSQTFGLAKDKVRDLDSLWDVLMNDVLPLPLEIEFVHLGEKTRRRFGALILLFDEAEEELEGHLRFNVRH | not failed

Row | Sequence | protein production
17 | APSQGATANAETQTTIPLGDTSQNALDWPGVYEGVLPCASCEGIQTTLTLQADNSFELKSIYLGKDESIFKVAGKFDWDSNGSKITLSDGSKYLVGENQLLMLDTEGNRITGGLAEHYILKKKGM | not failed
18 | AQGLDGRMLVEAPEEVGAPADVAARLGIEPGALVVHRRRRATIGEDVVQLQDAWYPLEIARAAGLDRPGKVVGGVLGAMTGAGLSPTSTDHDVEVWVPSAQQAAELSLGSRVSVLVVERVTYDATVRVLELTRHTGAADRLTLTYKGLPLRATGAEGSTS | failed
19 | AQQQELPVPKPHQLKWHEAEMGAVFHYDLHVFDGIRYGQGNNRINPIEDYNIFNPTELNTDQWVQAAKAAGCKFAVLTATHETGFGLWQSDVNPYCLKAVKWRDGKGDIVRDFVNSCRKYGLQPGIYIGIRWNSLLGIHNFKAEGEGAFARNRQAWYKRLCEKMVTELCTRYGDLYMIWFDGGADDPRADGPDVEPIVNKYQPNCLFYHNIDRADFRWGGSETGTVEYPCWSTFPVPCSHHKRIESSIDQLELLKHGDKNGRYWVPAMADTPLRGANGRHEWFWEPDDENNIYPLNTLMDKYEKSVGRNATLILGLTPDPTGLIPAGDAQRLKEMGDEINRRFSSPIARISGQKKSLTLKLGKEQSVNYCIIQENIKNGERIRQYQIEAKVNGKWQTVCKGESVGHKRIEKFEPVEATALRLTVSESIALPDIINFSAYSVK | not failed
20 | AQRRNEIQVPDLDGYTTLKCDFHMHSVFSDGLVWPTVRVDEAYRDGLDAISLTEHIEYRPHKQDVVSDHNRSFDLCREQAEKLGILLIKGSEITRAMAPGHFNAIFLSDSNPLEQKDYKDAFREAKKQGAFMFWNHPGWDSQQPDTTKWWPEHTALYQEGCMHGIEVANGHLYMPEAIQWCLDKNLTMIGTSDIHQPIQTDYDFEKGEHRTMTFVFAKERSLQGIREALDNRRTAAYFHELLIGREDLLRPFFEKCVKIEEVSRNEQGVTLSITNVTDLVLKLKKTAHDTLLVYFRDMTLKPHTRYTVRIGFKQGIKGGDVNFEVTNFIVAPDKGLKYTISL | not failed
21 | ARYYQHNAIEAVLEAISQGKNRMLLTLATGTGKTFIAFQLAWKLFQAKWNISGEPTHRPRILFLADRNILANQAFNAFGAFDDDALVRIDPKEIKKKGKVPKNGSLFFSIFQTFMTTKGDKDFAHFYDYAPDFFDFIIIDECHRGGANDESTWRKILEYFSPAVQLGLTATPKRDVNGDTYKYFGEPLYTYSLKEGINDGYLTPFKVVQFTTTLDEYLYDPDDDVIEGDIDEARTYEEKDFNRIIEMEEREKQRVQLFMEAINQNEKTLVFCATQDHALAVRDLINQMKISTDPNYCVRVTANDGSIGETNLKTFQDNEKAIPTILTTSRKLSTGVDARNVRNIVLLRPINSMIEFKQIIGRGTRLFDNKDYFTIYDFVRAYEHFNDDEWDGEPTEPVAIDPEPRKEREKIDLDLEDEPEENRKPQKIKVKLADGKERELAHTQTTTFWDADGKPISAQEFIEKLFGDLPDLFKDEAELRTIWGKPDTRKSFLTGLAE | failed
22 | ASASIKKVAATLADAAITDGIGDATKAKAALDKISDAGGLIEDIGATRAQFGANINRLEHTMTNLGNMVENTSAAKGRIM | failed
23 | ASPVENKEVYQCRLCNAKLSSLLEQGSHERLCRNAAVCPYCSLRFFSPELKQEHESKCEYKKLTCLECMRTFKSSFSIWRHQVEVHNQNNMAPT | not failed
24 | ATKEFIYLVRGMTPEQGQAALDLKVPGVYGIEEFRRFYPAGDVTAHMVGFTDLDDHGREGVELAYDDWLAGVPGKRQVIKDRRGRLIKDVQVTKNAKAGKTLALSID | failed
25 | ATLKQLDGIHVTILHKEEGAGLGFSLAGGADLENKVITVHRVFPNGLASQEGTIQKGNEVLSINGKSLKGTTHHDALAILRQAREPRQAVIVTRKLTPEAMPDLNS | not failed
26 | AWMHGHRFYVDERVIVPRSFIGELLDDGLQPYVEDPELVGSVLELCTGSGCLAILAALAFPNASVDAVDLSADALAVAKINRDDYGLDERIALHHGDLYAPLPQFKWIDSAQRYDVIITNPPYVNAESMAELPAEYRHEPEMALAGGADGMDIVRRIIGEARRWLKDDGVLVVEIGNERANVEAAFGGLELVWLPTSAGDDSVFLIHASD | failed
27 | AYGLTFEAPKGILVEEDTEETFLLNNSRFYITIQSLDSDGMTKSDLKSVLKDYANDDGVKDQSAVQEFELPQFFGTYLKGSCETDHCLYACLMTKAAGSGFYISIIYSKENENIAEKILKSFTMEE | not failed
28 | CKLCLGEYPVEQMTTIAQCQCIFCTLCLKQYVELLIKEGLETAISCPDAACPKQGHLQENEIECMVAAEIMQRYKKLQFER | not failed
29 | CSEVNVVKERPKTDEHKSYSCSFKGCTDVELVAVICPYCEKNFCLRHRHQSDHDCEKLEVAKPRMAATQKLVR | not failed
30 | CVACSKPISGLTGAKFICFQDSQWHSECFNCGKCSVSLVGKGFLTQNKEIFCQKCGSGMDTDI | not failed
31 | DAAPAPAAEAAPAAAPAPAAAAELKEVHVPDIGGDEVEVTEIMVAIGDSIEEEQSLITVEGDKASMEVPAPFAGTLKEIKVAAGDKVSTGSLIMVFETAGSGAPAAPAAVEAPAAAAPAASAA | failed
